Reference: patent publication US20240132593A1 (KINETA, published 2024)

B1: Spiked Peptide 24 (VVEIRHHHSEHRVHG) (peptide)
peptide: VVEIRHHHSEHRVHG
notes: synthetic overlapping peptide from human VISTA
B2: Spiked Peptide 29 (DAPSNCVVYPSSSQE) (peptide)
peptide: DAPSNCVVYPSSSQE
notes: as for B1
B3: Spiked Peptide 19 (SDHHGNFSITMRNLT) (peptide)
peptide: SDHHGNFSITMRNLT
notes: as for B1
B4: Spiked Peptide 18 (GLESASDHHGNFSIT) (peptide)
peptide: GLESASDHHGNFSIT
notes: as for B1
B5: Spiked Peptide 1 (FKVATPYSLYVCPEG) (peptide)
peptide: FKVATPYSLYVCPEG
notes: as for B1
B6: Spiked Peptide 15 (GHQAANTSHDLAQRH) (peptide)
peptide: GHQAANTSHDLAQRH
notes: as for B1
B7: Spiked Peptide 8 (FYKTWYRSSRGEVQT) (peptide)
peptide: FYKTWYRSSRGEVQT
notes: as for B1
B8: Spiked Peptide 3 (VCPEGQNVTLTCRLL) (peptide)
peptide: VCPEGQNVTLTCRLL
notes: as for B1
B9: Spiked Peptide 2 (PYSLYVCPEGQNVTL) (peptide)
peptide: PYSLYVCPEGQNVTL
notes: as for B1
B10: Spiked Peptide 20 (NFSITMRNLTLLDSG) (peptide)
peptide: NFSITMRNLTLLDSG
notes: as for B1
B11: Spiked Peptide 10 (GEVQTCSERRPIRNL) (peptide)
peptide: GEVQTCSERRPIRNL
notes: as for B1
B12: Spiked Peptide 28 (VQTGKDAPSNCVVYP) (peptide)
peptide: VQTGKDAPSNCVVYP
notes: as for B1
B13: Spiked Peptide 17 (LAQRHGLESASDHHG) (peptide)
peptide: LAQRHGLESASDHHG
notes: as for B1
B14: Spiked Peptide 11 (CSERRPIRNLTFQDL) (peptide)
peptide: CSERRPIRNLTFQDL
notes: as for B1
B15: Spiked Peptide 26 (HRVHGAMELQVQTGK) (peptide)
peptide: HRVHGAMELQVQTGK
notes: as for B1
B16: Spiked Peptide 13 (TFQDLHLHHGGHQAA) (peptide)
peptide: TFQDLHLHHGGHQAA
notes: as for B1
B17: Spiked Peptide 21 (MRNLTLLDSGLYCCL) (peptide)
peptide: MRNLTLLDSGLYCCL
notes: as for B1
B18: Spiked Peptide 5 (TCRLLGPVDKGHDVT) (peptide)
peptide: TCRLLGPVDKGHDVT
notes: as for B1
B19: Spiked Peptide 27 (AMELQVQTGKDAPSN) (peptide)
peptide: AMELQVQTGKDAPSN
notes: as for B1
B20: Spiked Peptide 14 (HLHHGGHQAANTSHD) (peptide)
peptide: HLHHGGHQAANTSHD
notes: as for B1
B21: Spiked Peptide 4 (QNVTLTCRLLGPVDK) (peptide)
peptide: QNVTLTCRLLGPVDK
notes: as for B1
B22: Spiked Peptide 12 (PIRNLTFQDLHLHHG) (peptide)
peptide: PIRNLTFQDLHLHHG
notes: as for B1
B23: Spiked Peptide 23 (LYCCLVVEIRHHHSE) (peptide)
peptide: LYCCLVVEIRHHHSE
notes: as for B1
B24: Spiked Peptide 22 (LLDSGLYCCLVVEIR) (peptide)
peptide: LLDSGLYCCLVVEIR
notes: as for B1
B25: Spiked Peptide 25 (HHHSEHRVHGAMELQ) (peptide)
peptide: HHHSEHRVHGAMELQ
notes: as for B1
B26: Spiked Peptide 7 (GHDVTFYKTWYRSSR) (peptide)
peptide: GHDVTFYKTWYRSSR
notes: as for B1
B27: Spiked Peptide 9 (YRSSRGEVQTCSERR) (peptide)
peptide: YRSSRGEVQTCSERR
notes: as for B1
B28: Spiked Peptide 16 (NTSHDLAQRHGLESA) (peptide)
peptide: NTSHDLAQRHGLESA
notes: as for B1
B29: Spiked Peptide 6 (GPVDKGHDVTFYKTW) (peptide)
peptide: GPVDKGHDVTFYKTW
notes: as for B1

Columns and labels:
[1] = target: Antibody No. 245.1; assay: peptide blocking ELISA on plate-bound VISTA, peptide 2 ug/mL
Method: (§1) ELISA was used to measure the ability of sequential overlapping 15-mer synthetic peptides from human VISTA to block binding of an antibody to full length VISTA-ECD immobilized on a microtiter plate. Nickel coated ELISA plates were blocked with BSA and bound with 0.5 μg/mL VISTA protein (Human recombinant, produced in HEK 293 cells, SinoBiologics) for 1 h at room temperature. Anti-VISTA antibodies were diluted to 2-fold their EC₅₀ concentrations and pre-incubated at a 1:1 ratio with either 2 μg/mL or 20 μg/mL peptide solution in 0.5% BSA in PBST for 30 min at room temperature. Peptide-bound antibody solutions (50 μL) were added to each microtiter well and incubated for 1 h at room temperature, after which the ELISA plate was washed and processed as described above for standard ELISAs. Data are expressed as a percent reduction in ELISA signal obtained without preincubation with peptide solution.

[2] = target: T1, Antibody No. 465.1; assay: as above
T1 construct: also called Ab No. 465.1
Method: as §1

[3] = target: VSTB174; assay: as above
VSTB174, sequence (VH, as listed by the source, chain 1 of 2): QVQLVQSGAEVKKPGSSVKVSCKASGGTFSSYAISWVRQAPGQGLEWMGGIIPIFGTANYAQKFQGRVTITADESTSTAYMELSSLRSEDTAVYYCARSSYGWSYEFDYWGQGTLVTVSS
VSTB174, sequence (VL, as listed by the source, chain 2 of 2): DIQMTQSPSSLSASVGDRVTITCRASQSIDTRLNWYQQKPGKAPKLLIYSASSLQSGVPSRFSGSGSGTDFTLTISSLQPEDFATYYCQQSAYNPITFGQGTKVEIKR
Method: as §1

[4] = target: Antibody No. 245.1; assay: peptide blocking ELISA on plate-bound VISTA, peptide 20 ug/mL
Method: as §1

[5] = target: T1, Antibody No. 465.1; assay: as above
Method: as §1

[6] = target: VSTB174; assay: as above
Method: as §1

Binder | percent reduction in ELISA signal [1] | percent reduction in ELISA signal [2] | percent reduction in ELISA signal [3] | percent reduction in ELISA signal [4] | percent reduction in ELISA signal [5] | percent reduction in ELISA signal [6]
B1 | 8% | 16% | 48% | 41% | 43% | 82%
B2 | 0% | 0% | 8% | 0% | 14% | 10%
B3 | 0% | 3% | 10% | 9% | 4% | 28%
B4 | 3% | 0% | 17% | 3% | 4% | 32%
B5 | 2% | 5% | 1% | 0% | 7% | 18%
B6 | 11% | 0% | 9% | 0% | 3% | 35%
B7 | 8% | 0% | 22% | 1% | 0% | 34%
B8 | 0% | 2% | 0% | 3% | 7% | 37%
B9 | 1% | 0% | 8% | 9% | 1% | 3%
B10 | 23% | 0% | 20% | 28% | 24% | 42%
B11 | 0% | 0% | 2% | 0% | 4% | 0%
B12 | 0% | 0% | 0% | 5% | 0% | 5%
B13 | 13% | 8% | 21% | 26% | 7% | 46%
B14 | 4% | 0% | 10% | 6% | 8% | 14%
B15 | 0% | 0% | 17% | 0% | 2% | 25%
B16 | 3% | 15% | 26% | 57% | 36% | 81%
B17 | 10% | 0% | 15% | 4% | 22% | 38%
B18 | 7% | 0% | 14% | 9% | 12% | 14%
B19 | 0% | 0% | 13% | 0% | 3% | 24%
B20 | 1% | 11% | 20% | 66% | 43% | 79%
B21 | 9% | 0% | 5% | 25% | 16% | 32%
B22 | 20% | 9% | 52% | 62% | 55% | 89%
B23 | 9% | 2% | 31% | 37% | 36% | 67%
B24 | 0% | 0% | 18% | 34% | 41% | 75%
B25 | 10% | 10% | 45% | 52% | 67% | 83%
B26 | 12% | 0% | 8% | 26% | 26% | 30%
B27 | 4% | 3% | 0% | 0% | 10% | 0%
B28 | 0% | 0% | 10% | 14% | 0% | 28%
B29 | 3% | 0% | 10% | 9% | 4% | 25%
